Assay results taken from US20120100159A1 (Genentech, published 2012).
Where a chain is given by its changes, count along the chain named.

B1: YWO.49.H6 (antibody, V domains shown)
VH: EVQLVESGGGLVQPGGSLRLSCAASGFTITNYGIHWVRQAPGKGLEWVGRIYPDSGATYYADSVKGRFTISADTSKNTAYLQMNSLRAEDTAVYYCARKLWISIAGMDYWGQGTLVTVSS
VL: DIQMTQSPSSLSASVGDRVTITCRASQDVSTAVAWYQQKPGKAPKLLIYSASFLYSGVPSRFSGSGSGTDFTLTISSLQPEDFATYYCQHSYATPFTFGQGTKVEIKR
notes: also called YWO.H6
B2: YWO.49.H2 (antibody, V domains shown)
VH: B1 VH with I102V, I104L, G106P
VL: B1 VL with H90Q, A93G, T97I
B3: YWO.49 (antibody, V domains shown)
VH: B1 VH with I102V, I104R
VL: B1 VL with H90Q, A93T, F96P
notes: detected with anti-human IgG; also called anti-TAT226 monoclonal antibody YWO.49
B4: YWO.49.B7 (antibody, V domains shown)
VH: B1 VH with I102V, I104L, G106A
VL: B1 VL with H90R, Y92V, A93F, F96P, T97A
B5: YWO.49.C9 (antibody, V domains shown)
VH: B1 VH with I102V, S103T, I104L, G106S
VL: B1 VL with H90K, A93N, F96P
B6: YWO.49.H2-MC-vc-PAB-MMAF (antibody, V domains shown)
VH: B1 VH with I102V, I104L, G106P
VL: B1 VL with H90Q, A93G, T97I
modifications: MC-vc-PAB-MMAF conjugated to cysteine residues of the partially reduced antibody; average drug load 4.7 per antibody
B7: YWO.49.H6-MC-vc-PAB-MMAE (antibody, V domains shown)
VH: B1 VH
VL: B1 VL
modifications: MC-vc-PAB-MMAE conjugated to cysteine residues of the partially reduced antibody; average drug load 4.4 per antibody
B8: YWO.49.H2-MC-vc-PAB-MMAE (antibody, V domains shown)
VH: B1 VH with I102V, I104L, G106P
VL: B1 VL with H90Q, A93G, T97I
modifications: MC-vc-PAB-MMAE conjugated to cysteine residues of the partially reduced antibody; average drug load 3.8 per antibody
B9: YWO.49.H6-MC-vc-PAB-MMAF (antibody, V domains shown)
VH: B1 VH
VL: B1 VL
modifications: MC-vc-PAB-MMAF conjugated to cysteine residues of the partially reduced antibody; average drug load 4.4 per antibody

These binders were tested against T1, human TAT226 expressed on the surface of OVCAR3 cells (human, UniProt Q8N2G4 21-117) (assay: competition of iodinated antibody with unlabeled antibody on OVCAR3 cells, Scatchard analysis).
T1 construct: Endogenous protein on the human ovarian cancer line OVCAR3; also called cell surface TAT226; PSCA Hlog
T1 sequence: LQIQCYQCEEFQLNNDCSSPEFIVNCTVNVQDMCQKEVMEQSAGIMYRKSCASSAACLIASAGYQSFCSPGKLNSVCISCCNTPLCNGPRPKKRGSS
Experimental: The binding affinity of YWO.49.H2 and YWO.49.H6 for TAT226 expressed on the surface of OVCAR3 cells was examined using a competition assay. Briefly, labeled (iodinated) YWO.49.H2 or YWO.49.H6 was allowed to bind to OVCAR3 cells in the presence of unlabeled antibody. Binding affinity of the antibodies was determined in accordance with the Scatchard analysis methodology initially described in Munson et al., Anal. Biochem. 107:220 (1980).

In order of falling Kd:
1. B1  0.404 nM
2. B2  0.348 nM

The binders below were run against T2, recombinant TAT226-His fusion protein (human, UniProt Q8N2G4 21-115) (assay: SPR, BIACORE 3000, IgG immobilised on CM5 chip, TAT226-His injected (0.7-500 nM), 25 C).
T2 construct: also called recombinant antigen; not shown: C-terminal polyhistidine tag
T2 sequence: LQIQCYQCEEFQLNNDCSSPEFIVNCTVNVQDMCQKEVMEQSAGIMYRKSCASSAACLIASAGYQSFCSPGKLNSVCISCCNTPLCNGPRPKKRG
Experimental: The binding affinity of YWO.49, YWO.49.B7, YWO.49.C9, YWO.49.H2, and YWO.49.H6 for recombinant antigen was determined by surface plasmon resonance measurement using a BIACORE® 3000 system (Biacore, Inc., Piscataway, N.J.). Briefly, carboxymethylated dextran biosensor chips (CM5, Biacore Inc.) were activated with N-ethyl-N′-(3-dimethylaminopropyl)-carbodiimide hydrochloride (EDC) and N-hydroxysuccinimide (NHS) according to the supplier's instructions. Anti-TAT226 antibody was diluted to 5 ug/ml with 10 mM sodium acetate, pH 4.8, before injection at a flow rate of 5 μl/minute to achieve approximately 500 response units (RU) of coupled antibody. Next, 1M ethanolamine was injected to block unreacted groups. For kinetics measurements, two-fold serial dilutions of TAT226-His (0.7 nM to 500 nM) were injected in PBS with 0.05% Tween 20 at 25° C. at a flow rate of 25 μl/min Association rates (kₒₙ) and dissociation rates (koff) were calculated using a simple one-to-one Langmuir binding model (BIAevaluation Software version 3.2). The equilibrium dissociation constant (Kd) was calculated as the ratio koff/kₒₙ.

First: B1
Second: B3
The Kd of the first is 940-fold lower: 0.05 nM for the first, 47.2 nM for the second. The first binds more tightly here.

B4 and B5 cannot be ordered by Kd: under 0.18 nM for the first, under 0.03 nM for the second.

Binder B2 has a Kd of 0.23 nM.

These binders were tested against T1, human TAT226 expressed on the surface … (assay: cell-based or functional assay).

In order of rising “IC50, OVCAR3 in vitro cell killing assay (CellTiter-Glo, 5 days)” value:
1. B6  ~0.005 nM
2. B9  ~0.005 nM
3. B7  ~0.2 nM
4. B8  ~0.2 nM

These binders were tested against T3, recombinant gD:human TAT226 fusion protein expressed on HCT116#9-4 cells (herpes simplex virus type 1; human, UniProt Q8N2G4 23-141) (assay: cell-based or functional assay).
T3 sequence: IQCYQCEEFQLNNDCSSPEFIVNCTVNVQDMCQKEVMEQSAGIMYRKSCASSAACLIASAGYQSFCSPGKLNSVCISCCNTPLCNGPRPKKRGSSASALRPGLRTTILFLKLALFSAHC

In order of rising “IC50, in vitro cell killing assay on HCT116#9-4 transfectants (CellTiter-Glo, 3 days)” value:
1. B6  ~0.05 nM
2. B9  ~0.05 nM
